Data on 167 variants can be found in the RNAGym collection of RNA variant scans (doi:10.1093/nar/gkz1192).

B1: CPEB3 Ribozyme (parent)
chain: UAACAGGGGGCCACAGCAGAAGCGUUCACGUCGCAGCCCCUGUCAGAUUCUGGUGAAUCUGCGAAUUCUGCUGUAUAUCUC

Variants of B1 are the subject of the series. Description: self-cleavage, relative activity (ratio to wild type); higher = more cleavage; in vitro, sequencing. The essentials: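 After error-prone PCR and barcoding, CPEB3 ribozyme mutant libraries were transcribed with T7 RNA polymerase at 37°C for 5 hours, then given 15 min with DNase I before an EDTA stop, and they cleaved during both steps. Reverse transcription with template switching preceded Illumina sequencing. Relative activity divides a variant's cleaved/total read fraction by the unmutated ribozyme's. At least 5 reads were required per variant, and three batches were averaged.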
As to U26G U76C, the self-cleavage was found to be 0.45.

Regarding U26G U76A, the self-cleavage was determined as 0.32.

Consider U26G U72C, for which the self-cleavage was 0.31.

Take U26G U72A: the self-cleavage stood at 0.14.

Turning to U26C A75C, the self-cleavage came out at 0.38.

Regarding U26C A75U, the self-cleavage was determined as 0.56.

As to U26C A75G, the self-cleavage amounted to 0.38.

As to U26C G36A, the self-cleavage was found to be 0.13.

With U26C G36C, the self-cleavage is 0.15.

Consider U26C G36U, for which the self-cleavage stood at 0.25.

As to U26G U58C, the self-cleavage is 0.36.

Regarding U26G C59A, the self-cleavage came out at 0.16.

For the variant C27U A35U, the self-cleavage was 0.32.

With C27U A35G, the self-cleavage turned out to be 0.41.

In the case of U26C U60A, the self-cleavage is 0.39.

With U26C U60C, the self-cleavage turned out to be 0.27.

In the case of U26C U60G, the self-cleavage is 0.3.

In the case of U26C U80A, the self-cleavage stood at 0.51.

For U26C U80C, the self-cleavage is 0.56.

U26C U80G: the self-cleavage is 0.54.

Regarding U26C G46A, the self-cleavage stood at 0.17.

With U26C C39U, the self-cleavage stood at 0.61.

As to U26C C39A, the self-cleavage was determined as 0.33.

With C27U C37U, the self-cleavage came out at 0.2.

On to C27G U80A, for which the self-cleavage amounted to 0.22.

U26C G30A: the self-cleavage stood at 0.27.

Regarding U26C G30U, the self-cleavage turned out to be 0.16.

Turning to C27G A56G, the self-cleavage stood at 0.14.

Take U26C U54A: the self-cleavage was 0.5.

U26C U54G: the self-cleavage turned out to be 0.27.

As for U26C U54C, the self-cleavage turned out to be 0.44.

Regarding C27G, the self-cleavage was 0.28.

In the case of C27U, the self-cleavage was 0.29.

In the case of C27A, the self-cleavage was determined as 0.3.

In the case of C27G A64G, the self-cleavage came out at 0.23.

On to U26G U69A, for which the self-cleavage is 0.21.

U26G U69C: the self-cleavage was 0.37.

For the variant C27A C81U, the self-cleavage turned out to be 0.11.

U26G U48A: the self-cleavage was 0.37.

With U26G U48C, the self-cleavage turned out to be 0.22.

For the variant U26G U60C, the self-cleavage amounted to 0.11.

Consider U26C G33U, for which the self-cleavage was 0.24.

With U26C G33C, the self-cleavage came to 0.13.

For the variant U26C G33A, the self-cleavage came out at 0.24.

For the variant U26A U58G, the self-cleavage is 0.17.

In the case of U26A U58A, the self-cleavage is 0.23.

Take U26A U58C: the self-cleavage came to 0.39.

Regarding U26C U58G, the self-cleavage came out at 0.28.

For U26C U58A, the self-cleavage came out at 0.15.

On to U26C U58C, for which the self-cleavage turned out to be 0.29.

With C27A U74C, the self-cleavage turned out to be 0.19.

On to U26G C34G, for which the self-cleavage is 0.07.

For C27G U54C, the self-cleavage stood at 0.3.

With U26C U49A, the self-cleavage stood at 0.3.

On to U26C U49C, for which the self-cleavage came to 0.34.

Consider C27G U74C, for which the self-cleavage was 0.41.

Regarding C27U A28G, the self-cleavage is 0.37.

As to U26C C29G, the self-cleavage came out at 0.35.

Consider U26C C29A, for which the self-cleavage was found to be 0.18.

Take U26C C29U: the self-cleavage was found to be 0.29.

For the variant U26C C38U, the self-cleavage came to 0.4.

U26C C38G: the self-cleavage came to 0.09.

With U26C C38A, the self-cleavage was 0.19.

For C27U A45G, the self-cleavage came out at 0.17.

With C27U A45C, the self-cleavage came to 0.19.

U26C U43C: the self-cleavage worked out at 0.77.

On to U26C U43A, for which the self-cleavage turned out to be 0.26.

As to U26C U43G, the self-cleavage was determined as 0.7.

C27U A65C: the self-cleavage was 0.1.

Consider C27U A65G, for which the self-cleavage amounted to 0.24.

In the case of C27U A65U, the self-cleavage came out at 0.14.

In the case of U26C A56C, the self-cleavage is 0.31.

Turning to U26C A56U, the self-cleavage amounted to 0.28.

With U26C A56G, the self-cleavage came to 0.38.

U26C U31A: the self-cleavage amounted to 0.27.

As to U26C U31G, the self-cleavage came to 0.32.

As for U26C U31C, the self-cleavage was 0.35.

As for U26C A77U, the self-cleavage came to 0.53.

In the case of U26C A77G, the self-cleavage turned out to be 0.46.

For the variant U26C A77C, the self-cleavage turned out to be 0.45.

As for U26G A45U, the self-cleavage came out at 0.17.

Take U26G A45C: the self-cleavage was determined as 0.09.

Turning to U26G A45G, the self-cleavage turned out to be 0.17.

Take U26G C27U: the self-cleavage worked out at 0.63.

Regarding C27A U60C, the self-cleavage amounted to 0.18.

Take C27A A35G: the self-cleavage is 0.52.

Consider U26C A28G, for which the self-cleavage was 0.31.

Take U26C A28C: the self-cleavage was 0.29.

U26C A28U: the self-cleavage stood at 0.29.

As for U26G A56G, the self-cleavage is 0.24.

With U26G A56U, the self-cleavage stood at 0.1.

Regarding U26C U66A, the self-cleavage was determined as 0.23.

On to U26C U66G, for which the self-cleavage was 0.21.

U26C U66C: the self-cleavage is 0.26.

For C27U G33U, the self-cleavage came to 0.34.

Turning to C27A A28G, the self-cleavage was found to be 0.27.

Regarding U26G U74A, the self-cleavage was determined as 0.41.

Consider U26G U74C, for which the self-cleavage amounted to 0.39.

Consider C27U A64U, for which the self-cleavage came to 0.26.

Take C27U A64G: the self-cleavage stood at 0.24.

U26A U80A: the self-cleavage was 0.96.

As to U26A U80G, the self-cleavage amounted to 1.06.

For U26A U80C, the self-cleavage is 1.02.

Turning to U26C U48A, the self-cleavage turned out to be 0.23.

U26C U48G: the self-cleavage turned out to be 0.47.

As to U26C U48C, the self-cleavage turned out to be 0.33.

U26A U54C: the self-cleavage was 0.84.

Take U26A U54A: the self-cleavage turned out to be 0.82.

U26A U54G: the self-cleavage worked out at 0.53.

For U26G C38A, the self-cleavage was found to be 0.58.

Take C27U U49C: the self-cleavage came out at 0.15.

Turning to U26A U72C, the self-cleavage is 1.13.

U26A U72A: the self-cleavage turned out to be 0.75.

For the variant U26A U72G, the self-cleavage stood at 0.83.

Consider C27G C32U, for which the self-cleavage turned out to be 0.17.

Take U26C U69A: the self-cleavage is 0.26.

On to U26C U69C, for which the self-cleavage stood at 0.27.

As for U26C U69G, the self-cleavage amounted to 0.17.

Turning to U26C C27U, the self-cleavage is 0.27.

For the variant C27G U49A, the self-cleavage was determined as 0.28.

On to U26G C62A, for which the self-cleavage was found to be 0.13.

As for U26C G55C, the self-cleavage turned out to be 0.33.

U26C G55A: the self-cleavage is 0.43.

Consider U26G U49A, for which the self-cleavage worked out at 0.28.

Regarding U26G U49G, the self-cleavage came to 0.05.

Take U26C U76C: the self-cleavage turned out to be 0.52.

In the case of U26C U76A, the self-cleavage came to 0.53.

In the case of U26C U76G, the self-cleavage came to 0.55.

With C27A U76A, the self-cleavage was 0.55.

In the case of C27A U76C, the self-cleavage was 0.21.

Consider C27U U51A, for which the self-cleavage amounted to 0.17.

C27U U41A: the self-cleavage was found to be 0.2.

For C27U U41C, the self-cleavage was found to be 0.2.

On to C27U U41G, for which the self-cleavage came out at 0.11.

Turning to C27A C44G, the self-cleavage came out at 0.07.

On to C27A A56U, for which the self-cleavage stood at 0.09.

On to U26C C71U, for which the self-cleavage was 0.24.

For U26C C71A, the self-cleavage was found to be 0.1.

For the variant U26C C62A, the self-cleavage amounted to 0.38.

As to U26C C62G, the self-cleavage stood at 0.17.

On to U26C C62U, for which the self-cleavage turned out to be 0.16.

On to U26G A64G, for which the self-cleavage was 0.25.

For the variant C27A A57G, the self-cleavage was 0.08.

U26C A45G: the self-cleavage came to 0.32.

U26C A45U: the self-cleavage amounted to 0.26.

For the variant U26C A45C, the self-cleavage was found to be 0.36.

For the variant U26A U76C, the self-cleavage is 0.74.

On to U26A U76A, for which the self-cleavage was determined as 1.02.

Regarding U26G U43A, the self-cleavage was found to be 0.41.

In the case of U26G U43C, the self-cleavage came to 1.02.

For the variant C27A C50U, the self-cleavage amounted to 0.17.

For the variant U26C C59A, the self-cleavage amounted to 0.17.

Consider U26A U43A, for which the self-cleavage stood at 0.39.

Consider U26A U43C, for which the self-cleavage worked out at 0.29.

As to U26A U43G, the self-cleavage was determined as 0.33.

As to U26G C44A, the self-cleavage was 0.25.

For the variant C27A U58G, the self-cleavage is 0.25.

As for C27U A77U, the self-cleavage amounted to 0.09.

U26A U69C: the self-cleavage was 0.4.

As for U26A U69G, the self-cleavage worked out at 0.48.

U26A U69A: the self-cleavage came out at 0.46.

Take U26G C79A: the self-cleavage was 0.19.

In the case of U26G C79U, the self-cleavage was 0.4.

For the variant U26A U67A, the self-cleavage was determined as 0.38.

With U26A U67C, the self-cleavage was 0.29.

As to U26C C32U, the self-cleavage amounted to 0.16.

For the variant U26C C32A, the self-cleavage was determined as 0.22.
